Source: patent US20260201058A1 (SICHUAN HUIYU PHARMACEUTICAL, published 2026)

Columns and labels:
[1] = target: T1, hFc-tagged human MSLN recombinant protein (huMSLN-hFc, Kactus Biosystems, MSL-HM280) (human, UniProt Q13421 296-580); assay: Carterra HC30M chip, antibody captured via anti-DYKDDDDK, antigen as analyte
T1 construct: Bought protein; also called huMSLN-Fc; human MSLN-Fc
Method: (§1) The anti-[…] antibody was bound to the HC30M chip via amino coupling, and then 2 μg/mL of MSLN single-domain antibody was captured. After the baseline was stabilized, gradient diluted huMSLN-Fc (Kactus Biosystems, MSL-HM280) and cynoMSLN-Fc (Kactus Biosystems, MSL-CM280) (starting from 100 nM, gradient dilution) were flowed through the chip from low to high concentrations, respectively, with a binding time of 8 minutes and a dissociation time of 20 minutes. Kinetic constants were obtained by fitting with Carteria software.

[2] = target: T2, cynoMSLN-Fc (Kactus Biosystems, MSL-CM280) (cyno (monkey)); assay: as above
T2 construct: Bought protein; also called monkey MSLN
Method: as §1

[3] = target: T3, human PD-L1 protein (ACRO, PD1-H5258) (human, UniProt Q9NZQ7 19-238); assay: Carterra HC30M chip, antibody captured via anti-DYKDDDDK, PD-L1 as analyte
T3 construct: Bought protein; also called Human PDL1-Fc
T3 sequence (Q9NZQ7 19-238): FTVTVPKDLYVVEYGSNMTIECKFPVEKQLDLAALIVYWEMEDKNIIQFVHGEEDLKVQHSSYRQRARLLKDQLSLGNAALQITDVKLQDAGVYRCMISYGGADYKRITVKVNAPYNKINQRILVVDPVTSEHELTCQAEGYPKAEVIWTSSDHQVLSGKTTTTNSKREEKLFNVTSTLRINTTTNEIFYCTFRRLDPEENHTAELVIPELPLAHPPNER
Method: (§2) The anti-[…] antibody was bound to the HC30M chip via amino coupling, then 2 μg/mL of humanized PD-L1 single-domain antibody was captured. […] Kinetic constants were obtained by fitting with Carteria software.

[4] = target: T4, mouse PD-L1 protein (ACRO, PD1-M5251) (mouse, UniProt Q9EP73 19-238); assay: as above
T4 construct: Bought protein; also called Mouse PDL1-Fc
T4 sequence (Q9EP73 19-238): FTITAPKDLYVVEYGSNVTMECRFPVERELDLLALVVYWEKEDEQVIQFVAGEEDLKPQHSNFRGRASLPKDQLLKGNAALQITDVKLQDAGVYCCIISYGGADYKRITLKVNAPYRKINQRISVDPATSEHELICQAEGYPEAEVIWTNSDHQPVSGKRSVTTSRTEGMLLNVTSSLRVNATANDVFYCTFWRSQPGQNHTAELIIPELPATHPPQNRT
Method: as §2

[5] = target: T5, monkey PD-L1 protein (Kactus Biosystems, PDL-CM210) (monkey); assay: as above
T5 construct: Bought protein; also called Monkey PDL1-Fc
Method: as §2

T1 sequence (Q13421 other isoform, or with tags, fused parts or gaps): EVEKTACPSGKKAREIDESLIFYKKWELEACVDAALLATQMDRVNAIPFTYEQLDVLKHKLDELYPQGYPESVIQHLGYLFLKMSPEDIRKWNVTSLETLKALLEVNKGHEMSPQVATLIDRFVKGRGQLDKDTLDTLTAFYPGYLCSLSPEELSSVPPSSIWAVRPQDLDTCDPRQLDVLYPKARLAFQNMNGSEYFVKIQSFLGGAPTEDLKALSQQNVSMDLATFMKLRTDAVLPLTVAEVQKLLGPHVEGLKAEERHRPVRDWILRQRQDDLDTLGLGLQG

Binder	Kd [1] [nM]	koff [1] [s⁻¹]	kon [1] [M⁻¹ s⁻¹]	Kd [2] [nM]	koff [2] [s⁻¹]	kon [2] [M⁻¹ s⁻¹]	Kd [3] [nM]	Kd [4] [nM]	Kd [5] [nM]
3C6 hu-5 (Fc fusion, Humanized VHH-Fc antibody: VHH, linker, human IgG1 Fc) EVQLVESGGGLIQPGGSLRLSCAASGNIGSIRHMGWHRQAPGKERELVSTITTVGTTYYANFVKGRFTISRDNSKNTLYLQMNSLRAEDTAVYYCRATAHPTDYWGQGTLVTVSSGGGGSGGGGSDKTHTCPPCPAPEAAGAPSVFLFPPKPKDTLMISRTPEVTCVVVDVSHEDPEVKFNWYVDGVEVHNAKTKPREEQYNSTYRVVSVLTVLHQDWLNGKEYKCAVSNKALPAPIEKTISKAKGQPREPQVYTLPPSRDELTKNQVSLTCLVKGFYPSDIAVEWESNGQPENNYKTTPPVLDSDGSFFLYSKLTVDKSRWQQGNVFSCSVMHEALHNHYTQKSLSLSP	2.26	0.00175	772000	1.66	0.000914	551000	–	–	–
3C6 hu-6 (Fc fusion, Humanized VHH-Fc antibody: VHH, linker, human IgG1 Fc) EVQLVESGGGLIQPGGSLRLSCAASGNIGSIRHMGWHRQAPGKERELVATITTVGTTYYANFVKGRFTISRDNSKNTLYLQMNSLRAEDTAVYYCRATAHPTDYWGQGTLVTVSSGGGGSGGGGSDKTHTCPPCPAPEAAGAPSVFLFPPKPKDTLMISRTPEVTCVVVDVSHEDPEVKFNWYVDGVEVHNAKTKPREEQYNSTYRVVSVLTVLHQDWLNGKEYKCAVSNKALPAPIEKTISKAKGQPREPQVYTLPPSRDELTKNQVSLTCLVKGFYPSDIAVEWESNGQPENNYKTTPPVLDSDGSFFLYSKLTVDKSRWQQGNVFSCSVMHEALHNHYTQKSLSLSP	2.25	0.00185	820000	1.78	0.00115	644000	–	–	–
3C6 hu-8 (Fc fusion, Humanized VHH-Fc antibody: VHH, linker, human IgG1 Fc) EVQLVESGGGLIQPGGSLRLSCAASGNIGSIRHMGWVRQAPGKERELVATITTVGTTYYANFVKGRFTISRDNSKNTLYLQMNSLRAEDTAVYYCRATAHPTDYWGQGTLVTVSSGGGGSGGGGSDKTHTCPPCPAPEAAGAPSVFLFPPKPKDTLMISRTPEVTCVVVDVSHEDPEVKFNWYVDGVEVHNAKTKPREEQYNSTYRVVSVLTVLHQDWLNGKEYKCAVSNKALPAPIEKTISKAKGQPREPQVYTLPPSRDELTKNQVSLTCLVKGFYPSDIAVEWESNGQPENNYKTTPPVLDSDGSFFLYSKLTVDKSRWQQGNVFSCSVMHEALHNHYTQKSLSLSP	12	0.0315	2.63e+06	17.3	0.0165	956000	–	–	–
3C6 hu-4 (Fc fusion, Humanized VHH-Fc antibody: VHH, linker, human IgG1 Fc) EVQLVESGGGLIQPGGSLRLSCAASGNIGSIRHMGWHRQAPGKGRELVSTITTVGTTYYANFVKGRFTISRDNSKNTLYLQMNSLRAEDTAVYYCRATAHPTDYWGQGTLVTVSSGGGGSGGGGSDKTHTCPPCPAPEAAGAPSVFLFPPKPKDTLMISRTPEVTCVVVDVSHEDPEVKFNWYVDGVEVHNAKTKPREEQYNSTYRVVSVLTVLHQDWLNGKEYKCAVSNKALPAPIEKTISKAKGQPREPQVYTLPPSRDELTKNQVSLTCLVKGFYPSDIAVEWESNGQPENNYKTTPPVLDSDGSFFLYSKLTVDKSRWQQGNVFSCSVMHEALHNHYTQKSLSLSP	4.89	0.00471	963000	5.58	0.00285	511000	–	–	–
4A7 hu-5 (Fc fusion, Humanized VHH-Fc antibody) EVQLLESGGGLVQPGGSLRLSCAASGRTFSTNVMGWFRQAPGKGLEFVSAISRAGSTYSADSVKGRFTISRDNSKNTLYLQMNSLRAEDTAVYYCAAGSSPTAIFGKSGMDYWGQGTQVTVSSGGGGSGGGGSDKTHTCPPCPAPEAAGAPSVFLFPPKPKDTLMISRTPEVTCVVVDVSHEDPEVKFNWYVDGVEVHNAKTKPREEQYNSTYRVVSVLTVLHQDWLNGKEYKCAVSNKALPAPIEKTISKAKGQPREPQVYTLPPSRDELTKNQVSLTCLVKGFYPSDIAVEWESNGQPENNYKTTPPVLDSDGSFFLYSKLTVDKSRWQQGNVFSCSVMHEALHNHYTQKSLSLSP	–	–	–	–	–	–	141	9.72	94.3
4A7 hu-2 (Fc fusion, Humanized VHH-Fc antibody) EVQLLESGGGLVQPGGSLRLSCAASGRTFSTNVMGWVRQAPGKGLEWVSAISRAGSTYSADSVKGRFTISRDNSKNTLYLQMNSLRAEDTAVYYCAAGSSPTAIFGKSGMDYWGQGTQVTVSSGGGGSGGGGSDKTHTCPPCPAPEAAGAPSVFLFPPKPKDTLMISRTPEVTCVVVDVSHEDPEVKFNWYVDGVEVHNAKTKPREEQYNSTYRVVSVLTVLHQDWLNGKEYKCAVSNKALPAPIEKTISKAKGQPREPQVYTLPPSRDELTKNQVSLTCLVKGFYPSDIAVEWESNGQPENNYKTTPPVLDSDGSFFLYSKLTVDKSRWQQGNVFSCSVMHEALHNHYTQKSLSLSP	–	–	–	–	–	–	–	408	367

The remaining lines, values ahead:

Kd [1] [nM]	koff [1] [s⁻¹]	kon [1] [M⁻¹ s⁻¹]	Kd [2] [nM]	koff [2] [s⁻¹]	kon [2] [M⁻¹ s⁻¹]	Kd [3] [nM]	Kd [4] [nM]	Kd [5] [nM]	Binder
4.94	0.00277	560000	4.79	0.00244	510000	–	–	–	3C6 hu-7 (Fc fusion, Humanized VHH-Fc antibody: VHH, linker, human IgG1 Fc) EVQLVESGGGLIQPGGSLRLSCAASGNIGSIRHMGWHRQAPGKEREWVATITTVGTTYYANFVKGRFTISRDNSKNTLYLQMNSLRAEDTAVYYCRATAHPTDYWGQGTLVTVSSGGGGSGGGGSDKTHTCPPCPAPEAAGAPSVFLFPPKPKDTLMISRTPEVTCVVVDVSHEDPEVKFNWYVDGVEVHNAKTKPREEQYNSTYRVVSVLTVLHQDWLNGKEYKCAVSNKALPAPIEKTISKAKGQPREPQVYTLPPSRDELTKNQVSLTCLVKGFYPSDIAVEWESNGQPENNYKTTPPVLDSDGSFFLYSKLTVDKSRWQQGNVFSCSVMHEALHNHYTQKSLSLSP
3.56	0.00218	611000	2.74	0.00125	455000	–	–	–	3C6 hu-3 (Fc fusion, Humanized VHH-Fc antibody: VHH, linker, human IgG1 Fc) EVQLVESGGGLIQPGGSLRLSCAASGNIGSIRHMGWHRQAPGKELELVSTITTVGTTYYANFVKGRFTISRDNSKNTLYLQMNSLRAEDTAVYYCRATAHPTDYWGQGTLVTVSSGGGGSGGGGSDKTHTCPPCPAPEAAGAPSVFLFPPKPKDTLMISRTPEVTCVVVDVSHEDPEVKFNWYVDGVEVHNAKTKPREEQYNSTYRVVSVLTVLHQDWLNGKEYKCAVSNKALPAPIEKTISKAKGQPREPQVYTLPPSRDELTKNQVSLTCLVKGFYPSDIAVEWESNGQPENNYKTTPPVLDSDGSFFLYSKLTVDKSRWQQGNVFSCSVMHEALHNHYTQKSLSLSP
2.69	0.00187	695000	3.67	0.00151	412000	–	–	–	3C6 hu-1 (Fc fusion, Humanized VHH-Fc antibody: VHH, linker, human IgG1 Fc) EVQLVESGGGLIQPGGSLRLSCAASGNIGSIRHMGWVRQAPGKGLEWVSTITTVGTTYYANFVKGRFTISRDNSKNTLYLQMNSLRAEDTAVYYCRATAHPTDYWGQGTLVTVSSGGGGSGGGGSDKTHTCPPCPAPEAAGAPSVFLFPPKPKDTLMISRTPEVTCVVVDVSHEDPEVKFNWYVDGVEVHNAKTKPREEQYNSTYRVVSVLTVLHQDWLNGKEYKCAVSNKALPAPIEKTISKAKGQPREPQVYTLPPSRDELTKNQVSLTCLVKGFYPSDIAVEWESNGQPENNYKTTPPVLDSDGSFFLYSKLTVDKSRWQQGNVFSCSVMHEALHNHYTQKSLSLSP
13.5	0.00732	540000	11.4	0.00426	374000	–	–	–	3C6 hu-2 (Fc fusion, Humanized VHH-Fc antibody: VHH, linker, human IgG1 Fc) EVQLVESGGGLIQPGGSLRLSCAASGNIGSIRHMGWHRQAPGKGLELVSTITTVGTTYYANFVKGRFTISRDNSKNTLYLQMNSLRAEDTAVYYCRATAHPTDYWGQGTLVTVSSGGGGSGGGGSDKTHTCPPCPAPEAAGAPSVFLFPPKPKDTLMISRTPEVTCVVVDVSHEDPEVKFNWYVDGVEVHNAKTKPREEQYNSTYRVVSVLTVLHQDWLNGKEYKCAVSNKALPAPIEKTISKAKGQPREPQVYTLPPSRDELTKNQVSLTCLVKGFYPSDIAVEWESNGQPENNYKTTPPVLDSDGSFFLYSKLTVDKSRWQQGNVFSCSVMHEALHNHYTQKSLSLSP
5.66	0.000304	53600	1.04	4.69e-05	45300	–	–	–	alpaca nanobody 3C6 (VHH, also called anti-MSLN nanobody 3C6) VHH: EVQLVESGGGLVQAGESLRLSCAVSGNIGSIRHMGWHRQDPGKERELVATITTVGTTYYANFVKGRFTISRDNAKNTVYLQMNSLKPEDTGVYYCRATAHPTDYWGQGTQVTVSS
–	–	–	–	–	–	–	143	1320	4A7 hu-1 (Fc fusion, Humanized VHH-Fc antibody) EVQLLESGGGLVQPGGSLRLSCAASGRTFSTNVMSWVRQAPGKGLEWVSAISRAGSTYYADSVKGRFTISRDNSKNTLYLQMNSLRAEDTAVYYCAAGSSPTAIFGKSGMDYWGQGTQVTVSSGGGGSGGGGSDKTHTCPPCPAPEAAGAPSVFLFPPKPKDTLMISRTPEVTCVVVDVSHEDPEVKFNWYVDGVEVHNAKTKPREEQYNSTYRVVSVLTVLHQDWLNGKEYKCAVSNKALPAPIEKTISKAKGQPREPQVYTLPPSRDELTKNQVSLTCLVKGFYPSDIAVEWESNGQPENNYKTTPPVLDSDGSFFLYSKLTVDKSRWQQGNVFSCSVMHEALHNHYTQKSLSLSP
